Source: article PMC4462951

T1: Hot1 (Saccharomyces cerevisiae BY4741, UniProt Q03213 1-719)
T1 sequence: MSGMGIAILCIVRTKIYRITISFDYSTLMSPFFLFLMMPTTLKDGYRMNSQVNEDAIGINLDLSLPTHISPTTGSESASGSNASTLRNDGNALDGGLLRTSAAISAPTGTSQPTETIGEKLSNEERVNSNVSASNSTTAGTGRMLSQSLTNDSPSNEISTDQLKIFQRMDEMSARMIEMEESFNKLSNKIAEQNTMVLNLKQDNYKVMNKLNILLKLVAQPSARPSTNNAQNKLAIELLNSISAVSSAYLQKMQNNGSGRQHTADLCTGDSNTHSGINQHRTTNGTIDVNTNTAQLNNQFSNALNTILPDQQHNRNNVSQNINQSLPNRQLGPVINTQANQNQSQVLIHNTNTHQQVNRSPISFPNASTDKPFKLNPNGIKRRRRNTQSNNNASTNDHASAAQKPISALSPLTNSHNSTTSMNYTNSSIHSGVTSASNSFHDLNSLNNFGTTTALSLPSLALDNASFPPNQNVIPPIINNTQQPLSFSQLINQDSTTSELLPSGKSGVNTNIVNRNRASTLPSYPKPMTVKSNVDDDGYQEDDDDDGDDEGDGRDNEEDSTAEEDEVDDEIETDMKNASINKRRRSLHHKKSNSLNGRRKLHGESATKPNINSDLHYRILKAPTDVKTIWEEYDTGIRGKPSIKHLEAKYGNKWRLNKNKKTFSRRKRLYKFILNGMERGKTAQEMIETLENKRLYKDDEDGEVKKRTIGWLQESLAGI


How the values were obtained:
Hot1 [1] = biological target: T1, Hot1; assay: EMSA
Hot1 [2] = biological target: T1, Hot1; assay: competition

Binder | binding result (Hot1 [1]) | binding result (Hot1 [2])
STL1 promoter HoRE, E6 probe (dsDNA) DNA 1: CTATTCCACCGCATTTGGCCCATTTGGCTCACTTTGACTCAACTTGCGTCATTTTAACTGATATG DNA 2: CATATCAGTTAAAATGACGCAAGTTGAGTCAAAGTGAGCCAAATGGGCCAAATGCGGTGGAATAG | binds | 
RM9 (E6 with mutated HoRE repeats) (dsDNA) DNA 1: CTATTCCACCGCATCTGGTCCATCTGGTTCACTCTGATTCAACTTGCGTCATTTTAACTGATATG DNA 2: CATATCAGTTAAAATGACGCAAGTTGAATCAGAGTGAACCAGATGGACCAGATGCGGTGGAATAG |  | no binding
